Patent US20200181597A1, “Composition and Application of Arginine-depleting Agents for Cancer, Obesity, Metabolic Disorders, and Related Complications and Comorbidities” (THE HONG KONG POLYTECHNIC UNIVERSITY, priority 2018, published 2020)

How the values were obtained:
[1] = target: human serum albumin (HSA) (Homo sapiens, UniProt P02768); assay: Binding to HSA on non-denaturing PAGE; settings: fixed HSA titrated at various molar ratios
Experimental: When ABD is fused to rhArg or BCA, it is important for the fusion protein to retain both the albumin binding capacity and the enzymatic activity. […] The reaction mixtures were analyzed in their native condition on non-denaturing PAGE where the proteins were separated by size and conformation.
In FIG. 7, the mobility of each of HSA and N-ABD-rhArg (SEQ ID NO: 49) alone are shown in Lanes 2 and 3 of the non-denaturing PAGE, respectively (FIG. 7). A fixed amount of HSA (30 pmoles) was titrated against N-ABD-rhArg (SEQ ID NO: 49) at various molar ratios and the results are illustrated in Lanes 5-9. […] In FIG. 8, the mobility of each of HSA and BHA (SEQ ID NO: 75) alone are shown in Lanes 6 and 7 of the non-denaturing PAGE, respectively (FIG. 8). A fixed amount of HSA (60 pmoles) was titrated against BHA (SEQ ID NO: 75) at various molar ratios and the results are illustrated in Lanes 1-5.

plasma arginine = assay: Plasma arginine after single i.p. dose of N-ABD-rhArg (Biochrom 30); format: in vivo, BALB/c mice
Experimental: FIG. 10 illustrates plasma arginine concentrations, measured using the Biochrom 30 Amino Acid Analyzer, of BALB/c mice after receiving intraperitoneal injection of a single dose of (A) 125U; (B) 250U; and (C) 500U of N-ABD-rhArg (SEQ ID NO: 49). N-ABD-rhArg (SEQ ID NO: 49) was injected at day 0.
Fifteen female BALB/c mice (10 weeks of age) were used in this study. They were kept in groups of five per cage. A single dose of N-ABD-rhArg (SEQ ID NO: 49) (500 U, 250 U, and 125 U, respectively) was administered to the mice via i.p. injection. Blood samples were collected from the saphenous vein using heparinized capillary tubes, and were centrifuged at 800×g to obtain plasma. Sixteen microliters of plasma sample was subjected to measurement of L-arginine concentration using the Biochrom 30 Amino Acid Analyzer. […] In comparing with BHA (SEQ ID NO: 75) (FIG. 9), N-ABD-rhArg (SEQ ID NO: 49) can deplete arginine to a very low level in the mice for exceptionally longer period, which highlights the importance of the requirement for rational design of the fusion protein.

[2] = test system: 4T1 breast cancer xenograft; assay: 4T1 breast cancer xenograft in nude mice; format: in vivo, female nude mice
Experimental: (§1) For the aggressive 4T1 breast cancer cell xenograft model studies, 10 female nude mice (11-12 weeks of age) were used. They were kept in groups of five per cage and provided food and water ad libitum. The 4T1 cancer cells were harvested by trypsinization and washed twice with 1×PBS and resuspended in 1×PBS for inoculation. The cancer cells (1×10^6 cells of 4T1) were injected subcutaneously into the left flank of the mice. […] They were injected with either 500U (3.2 mg, 230 μL) N-ABD-rhArg (SEQ ID NO: 49) or 1×PBS once per week. Blood samples were collected from the saphenous vein. Tumor size and the body weight of mice were monitored regularly. The tumor volume was estimated by the following equation: […]
The mice were sacrificed after 16 days of cancer cell inoculation (i.e. 13 days after starting of the experiment) because of necrosis of tumor in the PBS-injected control group. After being sacrificed, tumors were collected from the mice and the weight of the tumor was measured. Lungs were also collected and washed with 1×PBS. The lungs were fixed in Bouin's solution overnight and washed with 1×PBS after fixation. Lung metastatic nodules were counted.

serum arginine = assay: Serum arginine in 4T1 xenograft nude mice (Biochrom 30); format: in vivo; settings: BDL: Below Detection Level
Experimental: as §1
Importantly, 500U of the albumin-binding arginase N-ABD-rhArg (SEQ ID NO: 49) depleted arginine to a level below the detection limit of the Biochrom 30 Amino Acid Analyzer (3 μM) for at least 10 days in BALB/c mice (FIG. 10). Therefore, 500 U of N-ABD-rhArg (SEQ ID NO: 49) was administered via i.p. injection once per week to the 4T1 breast cancer xenograft nude mice for efficacy study.

[3] = test system: 4T1 breast cancer allograft; assay: 4T1 breast cancer allograft study; format: in vivo, female nude mice
Experimental: In another 4T1 breast cancer allograft study, female nude mice (5-6 weeks of age) were used. They were kept in groups of five per cage and provided food and water ad libitum. Cells of 4T1 breast cancer ([…]) were injected subcultuaneously into the right flank of the mice. […] There were one control group (n=8) and three experimental groups, including 500U PEGylated His-rhArg (SEQ ID NO: 101) (n=8), 500U N-ABD-rhArg (SEQ ID NO: 49) (n=6) and 250U N-ABD-rhArg (SEQ ID NO: 49) (n=8). Mice in the control group were injected with 1×PBS weekly. For the 500U ABD-rhArg group and the 250U ABD-rhArg group, mice were injected with 500U and 250U ABD-rhArg once a week, respectively; one group was injected with 500U PEG-rhArg once per week. The mice were sacrificed after 24 days of inoculation (i.e. 14 days after starting of experiment) because of necrosis of tumor in PBS control group. After sacrificing, the mice were dissected. Tumors were collected from the mice and measured their weight. Lungs were also collected and washed with 1×PBS. The lungs were fixed in Bouin's solution overnight and washed with 1×PBS after fixation. Lung metastatic nodules were counted.

[4] = literature; cited from earlier work
[5] = Enzyme kinetics after metal ion substitution; format: biochemical
Experimental: Wild type arginase typically includes a Mn^2+ metal ion (D′Antonio & Christianson, 2011, Biochemistry, 50:8018-27). […] Purified N-ABD094-rhArg (SEQ ID NO: 50) in 20 mM Tris-HCl buffer (pH 7.4) was mixed with 20 mM of different divalent metal ions (Mn^2+, Ni^2+ or Co^2+), and was incubated at 52-55° C. for 15-60 min and then buffer exchanged with PBS buffer (pH 7.4).
Samples were subjected to enzyme activity and enzyme kinetic studies to determine the specific activity and catalytic efficiency (kcat/Km). Samples were applied to inductively coupled plasma atomic emission spectroscopy (ICP-OES, Agilent 700 Series ICP optical emission spectrometer) for quantitative analysis of metal content.

[6] = DIO mice treated with N-ABD094-rhArg-Co^2+; format: in vivo, C57BL/6J male mice; settings: 25-100U i.p., within 5 weeks, from 55 g, HFD continued
Source text: Production of N-ABD094-rhArg-Co^2+ [SEQ ID NO: 50 (cobalt substituted)] is described in Example 32. C57BL/6J male mice with pre-existing diet-induced obesity (DIO) received i.p. injection of 25-100U N-ABD094-rhArg-Co^2+[SEQ ID NO: 50 (cobalt substituted)] for 5 weeks, while continuously being fed a HFD.

B1: N-ABD-rhArg: albumin binding domain (ABD) fused N-terminally to recombinant human arginase I, SEQ ID NO: 49 (protein)
chain: MHHHHHHDEAVDANSLAEAKVLANRELDKYGVSDYYKNLINNAKTVEGVKALIDEILAALPSGSNNNNNNGSGGMSAKSRTIGIIGAPFSKGQPRGGVEEGPTVLRKAGLLEKLKEQECDVKDYGDLPFADIPNDSPFQIVKNPRSVGKASEQLAGKVAEVKKNGRISLVLGGDHSLAIGSISGHARVHPDLGVIWVDAHTDINTPLTTTSGNLHGQPVSFLLKELKGKIPDVPGFSWVTPCISAKDIVYIGLRDVDPGEHYILKTLGIKYFSMTEVDRLGIGKVMEETLSYLLGRKKRPIHLSFDVDGLDPSFTPATGTPVVGGLTYREGLYITEEIYKTGLLSGLDIMEVNPSLGKTPEEVTRTVNTAVAITLACFGLAREGNHKPIDYLNPPK
modifications: N-ABD-rhArg, Synthesized in the Lab
binding to HSA (free HSA reduced in a proportional manner) [1]: specific binding
time serum arginine below detection limit (3 μM) (plasma arginine; single i.p. dose 125U): at least 3 days
time serum arginine below detection limit (3 μM) (plasma arginine; single i.p. dose 250U): at least 7 days
growth of 4T1 breast cancer xenograft ([2]; 500U once per week): inhibit the growth
Number of metastatic nodules found in lungs ([2]; 500 U once per week, n = 4 (PBS control: 3)): 0
% of metastasis free animals ([2]; 500 U once per week, n = 4 (PBS control: 50%)): 100%
estimated tumor volume vs control group ([2]; 500U once per week, 12 days and 13 days after starting): significant difference
Arginine Concentration (serum), individual mice 1-4 (serum arginine; Day 6, 500 U once per week): 0 (BDL) μM
Arginine Concentration (serum), individual mice 1-4 (serum arginine; Day 13, 500 U once per week): 0 (BDL) μM
growth of 4T1 solid tumor ([3]; 250U once per week): did not inhibit the growth
growth of 4T1 solid tumor ([3]; 500U once per week): inhibited the growth of the aggressive 4T1 solid tumor significantly
metastasis nodules from the lungs vs control group ([3]; 500U once per week): very significantly reduced

B2: human arginase: unmodified human arginase (Georgiou et al.) (protein, UniProt P05089 1-322, looked up)
Arginase-1: MSAKSRTIGIIGAPFSKGQPRGGVEEGPTVLRKAGLLEKLKEQECDVKDYGDLPFADIPNDSPFQIVKNPRSVGKASEQLAGKVAEVKKNGRISLVLGGDHSLAIGSISGHARVHPDLGVIWVDAHTDINTPLTTTSGNLHGQPVSFLLKELKGKIPDVPGFSWVTPCISAKDIVYIGLRDVDPGEHYILKTLGIKYFSMTEVDRLGIGKVMEETLSYLLGRKKRPIHLSFDVDGLDPSFTPATGTPVVGGLTYREGLYITEEIYKTGLLSGLDIMEVNPSLGKTPEEVTRTVNTAVAITLACFGLAREGNHKPIDYLNPPK
half-life / clearance in circulation [4]: a few minutes

B3: N-ABD094-rhArg-Co^2+: cobalt-substituted N-ABD094-rhArg enzyme (protein)
chain: MHHHHHHDEAVDANSLAEAKEAANAELDSYGVSDFYKRLIDKAKTVEGVEALKDAILAALPSGSNNNNNNGSGGMSAKSRTIGIIGAPFSKGQPRGGVEEGPTVLRKAGLLEKLKEQECDVKDYGDLPFADIPNDSPFQIVKNPRSVGKASEQLAGKVAEVKKNGRISLVLGGDHSLAIGSISGHARVHPDLGVIWVDAHTDINTPLTTTSGNLHGQPVSFLLKELKGKIPDVPGFSWVTPCISAKDIVYIGLRDVDPGEHYILKTLGIKYFSMTEVDRLGIGKVMEETLSYLLGRKKRPIHLSFDVDGLDPSFTPATGTPVVGGLTYREGLYITEEIYKTGLLSGLDIMEVNPSLGKTPEEVTRTVNTAVAITLACFGLAREGNHKPIDYLNPPK
modifications: cobalt substituted; N-ABD094-rhArg, Synthesized in the Lab
notes: cobalt-substituted N-ABD094-rhArg enzyme
Km [5]: 270 to 350 µM
kcat [5]: 250 to 316 s⁻¹
bodyweight after treatment [6]: 30 g
